Values quoted from earlier work as cited in patent US7776891B2, “VLA-4 antagonists” (Merck Sharp & Dohme Corp., priority 2004, dated 2010).

Target: T1, VLA-4 (Homo sapiens, UniProt P13612)
T1 construct: host or cells: circulating VLA-4-bearing leukocytes of trial subjects (endogenous)
Settings: early clinical trials

Question: With “natalizumab: humanized monoclonal antibody against α4 (Antegren®, Elan/Biogen)” as the substance, how does the “lymphocytosis (a surrogate marker for blockade of VLA-4 function)” value read?
Answer: Its value is “observed”.

Question: And the receptor occupancy?
Answer: Its receptor occupancy is greater than 80%.
